Measured values as given in patent US20120207760A1.

B1: TCN-540 (5060_F05) (antibody, V domains shown)
VH: QVQLVQSGGGVVQPGRSLRLSCAASGFTFSSYAMHWVRQAPGKGLEWVAIISYDGNDQYYTDSVKGRFTISRDSSKVYLQMHRLRPEDTAVYYCAKEFETSGYFHGSFDYWGQGILVTVSS
VL: QSALTQPASVSGSPGQSITISCTGTSSDVGGYNYVSWYQQHPGKAPKLLIYEVTNWPSGVSNRFSGSKSGNTASLTISGLQAEDEADYYCSSYAGSSTWVFGGGTRVTVL
B2: TCN-542 (5079_A16) (antibody, V domains shown)
VH: QVQLQESGPGLVKPSQTLSLTCTVSGGSISSGNYYWNWVRQHPGKGLEWIGYIYYRGSTFYNPSLKSRVTISIDTSKNQFSLRLSSVTAADTAVYYCAKDTRSSLDNYQYGMDVWGQGTTVTVSS
VL: QTVVTQEPSLTVSPGGTVTLTCASSTGAVTSSYFPNWFQQKPGQAPRPLIYSTTIRHSWTPARFSGSLLGGKAALTLSGVQPEDEADYYCLLYSGGDPVAFGGGTKLTVL
B3: TCN-546 (5089_L08) (antibody, V domains shown)
VH: QVQLQQWGAGLLKPSETLSLTCGVYGGSLSDYYWSWIRQPPGKGLEWIGEINHSGGTNYNPSLKRRVTISVDTSKKQFSLKMNSVTAADTAVYYCARGTDPDTEVYCRAGNCAAFDFWGQGTLVTVSS
VL: EIVLTQSPGTLSLSPGERATLSCRASHFVIGRAVAWYQQKPGQAPRLLIYGASSRATGIPDRFSGSGSGTDFTLTISRLETEDFAVFYCQHYGSSPRYAFGQGTKLEIK
B4: TCN-550 (5096_F06) (antibody, V domains shown)
VH: QVQLQESGPGLVKPSETLSLTCTVSGASINSHYWSWIRQPPGKGLEWIGYVYYSGSTTYNPSLKSRVTLSVDTSKNQFSLNLSSVTAADTAFYYCARHPYDVLTGSGDWFDPWGQGTLVTVSS
VL: SYVLTQAPSVSVAPGQTARITCGGNAIGSKKVHWYQHKAGQAPVLVVYDDTDRPSGIPERFSGSNSWSTATLTINRVEAGDEADYYCQVWDFTIDHVVFGGGTKLTVL
B5: TCN-552 (5249_I23) (antibody, V domains shown)
VH: QVQVVQSGAEVKKPGSSVRVSCQASGGTFMNYAIIWVRRAPGQGLEWMGGIIPVFPTPNYAQMFQGRVTISTDESRSTSFLELTNLRYEDTAVYYCARRIYHGGNSGFDFWGQGTLVTVSS
VL: EIVLTQSPATLSLSPGERATLSCRASQSVGNYLAWYQQKPGQAPRLLIYDSSNRAPGIPARFSGSGSGTDFTLTISSLAPEDFAVYYCQQRSKWPPMYSFGHGTKLEIK
B6: TCN-553 (5261_C18) (antibody, V domains shown)
VH: QVQVVQSGTEVKKPGSSVKVSCQTSGGRFMSYAITWVRQAPGQGLEWMGGIVPVFGTANYAQKFQGRVTITTDDSTRTAYMELSSLRSEDTAVYYCGFRYGSGYGFDSWGQGTLVTVSS
VL: EIVLTQSPGTLSLSPGERATLSCRASQSVSSSYLAWYQKKPGQAPRLLIYGASTRATGIPDRFTGSGSGTDFTLSISRLEPEDFAVYYCQHFGTSVFTFGGGTKVEIK
B7: TCN-554 (5277_M05) (antibody, V domains shown)
VH: QVQLVQSGADLKKPGASVKVSCKASGYTFTDYYIHWVRQAPGQGLEWMGWINPESGDTKYAQKFQGRVTMTRDTSITTAYMELGRLRSDDTAVYYCARDVSTTWSWFAPWGQGTLVTVSS
VL: DIVMTQSPDSLAVSLGERATINCRSSQSIFHNSNNENYLAWYQQKPGQPPKLLIYWASTRESGVPDRFSGSGSGTDFTLTISSLQAEDVAVYFCQQYYNAPLTFGGGTKVEIK
B8: TCN-557 (5081_A04) (antibody, V domains shown)
VH: QVQLVQSGAEVKKPGASVKVSCKASGHTFTGYYIHWVRQAPGQGLEWMGWINPDSGATSSAQNFQGRVTMTGDTSSSTAYMELSRLSFDDTAVYYCARVLFTSPFDFWGEGTLVTVSS
VL: QAVVTQEPSLAVSPGGTVTLTCGSSTGAVTRGHYPYWFQQKPGQAPRALIYDSAGNRHSWTPARFSGSLLGGKAALTLSGAQPEDEAEYYCLLSYSGVWVFGGGTKLTVL
B9: TCN-558 (5248_H10b) (antibody, V domains shown)
VH: QVQLVQSGSEVKKPGTSVKVSCTASGSVFTNYGISWVRQAPGQGLEWMGGIIPLFGAAKYAQKFQGRVTITADESTKTVYMELSRLTSKDTAIYFCAKAPRVYEYYFDQWGQGTPVTVSS
VL: EIVMTQFPATLSVSPGERVTLSCRASQSVSNNLAWYQQKPGQPPRLLIYDASTRATGVPAKFSGTGSGTEFTLSISSLQSEDFAVYYCQQYHNWPPSYSFGLGTKLEIK

Target: recombinant homotrimeric HA, A/South Carolina/1/18 H1N1 (Influenza A virus A/South Carolina/1/18 (H1N1))
Test: trimeric HA microarray, transfection set 5
Details: remark: other sources report otherwise

Row | Binder | Trimeric HA Binding RLU [RLU]
1 | B1 | 1360
2 | B2 | 1120
3 | B3 | 955
4 | B4 | 1010
5 | B5 | 37400
6 | B6 | 41300
7 | B7 | 1260
8 | B8 | 44900
9 | B9 | 40700

Target: recombinant homotrimeric HA, A/Vietnam/1203/04 H5N1 (Influenza A virus A/Vietnam/1203/04 (H5N1))
Test: trimeric HA microarray, transfection set 5
Details: remark: other sources report otherwise

Row | Binder | Trimeric HA Binding RLU [RLU]
10 | B5 | 18500
11 | B6 | 19200
12 | B8 | 21300

Target: recombinant homotrimeric HA, A/swine/Ontario/01911-2/99 H4N6 (Influenza A virus A/swine/Ontario/01911-2/99 (H4N6))
Test: trimeric HA microarray, transfection set 5
Details: remark: other sources report otherwise

Row | Binder | Trimeric HA Binding RLU [RLU]
13 | B2 | 14300
14 | B5 | 9080
15 | B6 | 12200
16 | B7 | 5400
17 | B8 | 41500
18 | B9 | 10000

Target: recombinant homotrimeric HA, A/Indonesia/5/05 H5N1 (Influenza A virus A/Indonesia/5/05 (H5N1))
Test: trimeric HA microarray, transfection set 5
Details: remark: other sources report otherwise

Row | Binder | Trimeric HA Binding RLU [RLU]
19 | B1 | 2570
20 | B3 | 40900
21 | B4 | 9000
22 | B5 | 43400
23 | B6 | 31200
24 | B8 | 22200

Target: recombinant homotrimeric HA, A/California/4/09 H1N1 (Influenza A virus A/California/4/09 (H1N1))
Test: trimeric HA microarray, transfection set 5
Details: remark: other sources report otherwise

Row | Binder | Trimeric HA Binding RLU [RLU]
25 | B1 | 984
26 | B3 | 1080
27 | B4 | 628
28 | B5 | 23500
29 | B6 | 23300
30 | B8 | 44400
31 | B9 | 20200

Target: recombinant homotrimeric HA, A/Japan/305/57 H2N2 (Influenza A virus A/Japan/305/57 (H2N2))
Test: trimeric HA microarray, transfection set 5
Details: remark: other sources report otherwise

Row | Binder | Trimeric HA Binding RLU [RLU]
32 | B1 | 47900
33 | B2 | 5180
34 | B3 | 1730
35 | B4 | 731
36 | B5 | 52000
37 | B6 | 39800
38 | B7 | 2620
39 | B8 | 27300
40 | B9 | 34400

Target: recombinant homotrimeric HA, A/Solomon Islands/3/06 H1N1 (Influenza A virus A/Solomon Islands/3/06 (H1N1))
Test: trimeric HA microarray, transfection set 5
Details: remark: other sources report otherwise

Row | Binder | Trimeric HA Binding RLU [RLU]
41 | B1 | 1180
42 | B4 | 758
43 | B5 | 48600
44 | B6 | 49600
45 | B7 | 992
46 | B8 | 27000
47 | B9 | 36100

Target: recombinant homotrimeric HA, A/Wisconsin/67/05 H3N2 (Influenza A virus A/Wisconsin/67/05 (H3N2))
Test: trimeric HA microarray, transfection set 5
Details: remark: other sources report otherwise

Row | Binder | Trimeric HA Binding RLU [RLU]
48 | B1 | 53000
49 | B3 | 28500
50 | B4 | 37800
51 | B5 | 18500
52 | B6 | 25200
53 | B7 | 25300
54 | B8 | 46100
55 | B9 | 26600

Target: recombinant soluble homotrimeric HA of A/northern shoveler/California/HKWF115/07 (Influenza A virus A/northern shoveler/California/HKWF115/2007)
Test: microarray, BCC supernatant IgG, trimeric HA
Details: remark: other sources report otherwise

Row | Binder | Trimeric HA Binding: RLU [RLU]
56 | B2 | 900
57 | B3 | 1350
